Measurements taken from paper doi:10.1101/2020.04.11.036434 (bioRxiv, 2020).

Tests used:
[1] = target: P-Rex2 (WT), recombinant full-length (UniProt Q70Z35 1-1606); test: pull-down
[2] = target: T1, P-Rex2 DEP2-IP4P (residues 472-1606) (UniProt Q70Z35 472-1606); test: SPR
T1 sequence: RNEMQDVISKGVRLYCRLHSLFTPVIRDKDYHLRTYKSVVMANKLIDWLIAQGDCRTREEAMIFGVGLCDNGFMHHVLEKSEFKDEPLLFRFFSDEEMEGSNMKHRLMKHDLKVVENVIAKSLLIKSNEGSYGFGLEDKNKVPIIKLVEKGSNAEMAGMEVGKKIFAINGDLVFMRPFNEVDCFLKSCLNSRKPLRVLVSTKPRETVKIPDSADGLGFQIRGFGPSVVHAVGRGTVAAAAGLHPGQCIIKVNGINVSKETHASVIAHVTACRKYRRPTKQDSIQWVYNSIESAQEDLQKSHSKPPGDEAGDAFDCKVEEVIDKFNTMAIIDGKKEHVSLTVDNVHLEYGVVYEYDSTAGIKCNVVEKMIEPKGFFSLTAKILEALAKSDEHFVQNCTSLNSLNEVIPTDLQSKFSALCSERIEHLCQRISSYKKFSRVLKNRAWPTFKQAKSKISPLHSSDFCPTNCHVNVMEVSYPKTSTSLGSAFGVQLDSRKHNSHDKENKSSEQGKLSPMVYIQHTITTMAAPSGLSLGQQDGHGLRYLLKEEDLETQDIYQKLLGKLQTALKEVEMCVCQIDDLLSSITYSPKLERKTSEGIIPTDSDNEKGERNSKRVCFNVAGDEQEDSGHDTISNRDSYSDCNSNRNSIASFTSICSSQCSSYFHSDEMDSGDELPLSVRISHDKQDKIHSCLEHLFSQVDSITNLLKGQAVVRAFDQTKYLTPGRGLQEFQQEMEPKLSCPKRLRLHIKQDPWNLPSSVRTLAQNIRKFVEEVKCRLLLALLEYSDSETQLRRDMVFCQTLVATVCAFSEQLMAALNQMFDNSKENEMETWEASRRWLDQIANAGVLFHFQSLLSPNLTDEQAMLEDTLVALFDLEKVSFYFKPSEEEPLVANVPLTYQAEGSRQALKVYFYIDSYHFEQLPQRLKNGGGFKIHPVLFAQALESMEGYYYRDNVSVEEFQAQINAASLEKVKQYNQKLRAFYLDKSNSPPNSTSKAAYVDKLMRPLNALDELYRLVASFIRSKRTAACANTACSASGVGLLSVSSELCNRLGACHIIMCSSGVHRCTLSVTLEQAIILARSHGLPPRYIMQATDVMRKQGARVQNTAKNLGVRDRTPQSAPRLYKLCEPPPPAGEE

B1: PTEN (WT), recombinant insect-cell purified (natural protein)
chain: not shown
[1]
  binding result: binds
[2]
  binding result: binds
